The values below come from publication PMC11581011.

The experiment addresses recombinantly expressed FphB protein (rFphB), wild type (Staphylococcus aureus) (UniProt Q2FV90).

Consider FphB-OX-5 (peptide), for which the IC50 of inhibition of rFphB (100 nM), cleavage of the 4-MUB substrate (20 μM) worked out at 1.8 µM.
